Laboratory results from PMC3017110.

T1: QK RNA-binding domain (recombinant, purified) (UniProt Q9QYS9 1-213)
T1 sequence: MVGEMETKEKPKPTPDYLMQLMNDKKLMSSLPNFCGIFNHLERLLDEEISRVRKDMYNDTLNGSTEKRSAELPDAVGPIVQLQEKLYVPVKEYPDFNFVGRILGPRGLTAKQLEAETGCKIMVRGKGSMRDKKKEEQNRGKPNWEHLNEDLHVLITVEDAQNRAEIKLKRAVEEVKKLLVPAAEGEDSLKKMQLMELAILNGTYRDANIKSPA


Key:
[1] = target: T1, QK RNA-binding domain (recombinant, …); assay: competition; competes with Mbp QSBE; Kc,app value only in figure; EMSA on non-denaturing 5% polyacrylamide slab gel in 1x TBE; binding buffer, salt, pH and temperature not printed (per ref 64)
[2] = target: T1, QK RNA-binding domain (recombinant, …); assay: EMSA; three fragments; does not bind with high affinity; EMSA on non-denaturing 5% polyacrylamide slab gel in 1x TBE; binding buffer, salt, pH and temperature not printed (per ref 64)
[3] = target: T1, QK RNA-binding domain (recombinant, …); assay: EMSA and fluorescence polarization; apparent Kd; EMSA on non-denaturing 5% polyacrylamide slab gel in 1x TBE; binding buffer, salt, pH and temperature not printed (per ref 64)

Binder	Kd [3]	other results
UGUGACUAAUUG (ssRNA) [Hnrnpa1 12-nt RNA competitor]		binding result [1]: binds
GCUCAUUCUUUGGAGCGGGUGUGUCAUU (ssRNA) [Plp1 ESE fragments (three overlapping)]		binding result [2]: no binding
AACUCCAGGACUGUAUUUGUGACUAAUUGU (ssRNA) [Hnrnpa1 3' UTR QSBE WT, 30 nt]	0.036 ± 0.002 µM	
CAGUGCCCAUUGGUACACACUAACCUCG (ssRNA) [Mbp QSBE]	0.044 ± 0.002 µM	
